According to US12006343B2, “C4BP-based compounds for treating immunological diseases” (FUNDACIO INSTITUT D'INVESTIGACIO BIOMEDICA DE BELLVITGE …, priority 2017, dated 2024):
Entries after “also recorded” stand apart in the source; their conditions may differ.

Key:
[1] = tested on: NZBWF1 mice; settings: CYP 50 mg/kg IP every 10 days; Alperovich et al. 2007; cited from earlier work
[2] = tested on: lupus-prone NZBWF1 mice; assay: Kaplan-Meier survival in spontaneous SLE mouse model NZBWF1; format: in vivo; settings: CYP 50 mg/kg IP once every 10 days
Procedure: NZBWF1/J mice develop an autoimmune disease resembling human systemic lupus erythematosus. […] The animals were maintained under standard laboratory conditions, at 20-24° C. and 40-70% relative humidity, with 12-hour fluorescent light/12-hour dark cycle. They were feed standard diet and tap water ad libitum.
(§1) Both IP and SC administrations for C4BP(β−), CYP and PBS (150 μl/each) were performed with a 25-gauge needle during 30 s, after rinsing the skin with 70% ethanol.
(§2) The detailed administration schedule was as follows (Table 5):
(§3) One-way analysis of variance (ANOVA) with post hoc tests was performed to compare proteinuria throughout the follow up. Survival data were analyzed using Kaplan-Meier curves and long-rank test. P value<0.05 was considered significant. Data are expressed as mean±SEM.

[3] = tested on: NZBWF1 mice; format: in vivo, mouse; settings: treatment weeks 24-36
Procedure: The animals were observed daily throughout the experimental period to check out any local and systemic reaction to the treatment, as well as other signs of illness and/or behavioral changes in order to obtain tolerance and toxicological information. Body weight was determined twice monthly from the beginning to the end of follow-up. Mice were placed in metabolic cages to collect 24 h urine specimens before the onset of treatment and monthly thereafter. Blood was obtained from the tail vein at monthly intervals.

[4] = tested on: lupus-prone NZBWF1 mice; assay: Renal function (24 h proteinuria) in spontaneous SLE mouse model NZBWF1; format: in vivo; settings: CYP 50 mg/kg IP every 10 days, up to week 37
Procedure: Mice, Study Design and Follow Up
NZB/NZW F1 or NZBWF1/J (Charles-River), NZB/NZW F1 (Jackson, code 100008) are a hybrid cross between NZB/B1NJ (Jackson, code 000684) Female x NZW/LacJ (Jackson, code 001058) Male. NZBWF1/J mice develop an autoimmune disease resembling human systemic lupus erythematosus. The inventors used 58 females (30-35 g/each) aged 15 weeks for the study (4-5 animals per cage). The animals were maintained under standard laboratory conditions, at 20-24° C. and 40-70% relative humidity, with 12-hour fluorescent light/12-hour dark cycle. They were feed standard diet and tap water ad libitum. […]
Dose Selection and Administration.
The selection of the C4BP(β−) dose for in vivo administration was based in previous studies employing complement-related proteins in immune-inflammatory pathologies. Blom et al. (Blom et al. 2009. Ann. Rheum. Dis., 68:136-42) used the C4BP isoform lacking β chain in experimental collagen-induced arthritis (CIA) and collagen antibody-induced arthritis (CAIA) mice to investigate the influence of complement activity in the treatment of rheumatoid arthritis. These authors administered intraperitoneally C4BP (2 mg/mouse) using a multiple dose-regimen once every two days in preventive and therapeutic experiments. Thus, in the current study, C4BP(β−) was administered both intraperitoneally (IP) and subcutaneously (SC) into NZBWF1 mice for three months (between six and nine months of age).
Alperovich et al (Alperovich et al. 2007. Lupus, 16:18-24) administered cyclophosphamide (CYP) to NZBWF1 mice at 50 mg/kg IP every 10 days.
as §1, §2
Body weight was determined twice monthly from the beginning to the end of follow-up. Mice were placed in metabolic cages to collect 24 h urine specimens before the onset of treatment and monthly thereafter. Blood was obtained from the tail vein at monthly intervals.
Renal Function Analysis: Proteinuria
24 h urinary protein was determined by pyrogallol red (Olympum Autoanalyzer AU400, Hamburg, Germany) in the Veterinary Clinical Biochemistry Laboratory from Universitat Autonoma de Barcelona.
as §3

[5] = tested on: human monocyte-derived DCs; assay: Immunomodulatory activity over human monocyte-derived DCs: CD83/CD86 surface expression by flow cytometry after LPS maturation; format: cell-based; settings: FIG. 4
Procedure: In Vitro Functional Assessment of the Immunomodulatory Activity of Full-Length C4BP(β−) and C4BP(β−) Variants Over DCs
The inventors used for the in vitro study both C4BP(β+) (WT) and recombinant C4BP(β−) isoforms, and the above-referred mutants or variants: Mutant 1 and Mutant 2. C4BP(β+) isoforms refer to the major C4BP α7β1 plus the minor C4BP α6β1 isoforms (both in complex with ProS) purified from pooled human plasma.
RPMI 1640 was supplemented with 100 μg/ml of streptomycin, 100 IU/ml of penicillin, 2 mM L-glutamine (all from Invitrogen, Carlsbad, CA) and 10% heat-inactivated fetal bovine serum (Linus, Cultek, Spain) (complete medium), unless otherwise stated.
Peripheral blood mononuclear cells (PBMCs) were obtained from buffy coat preparations collected from healthy donors from the Blood and Tissue Bank (Barcelona, Spain) after Ficoll-Paque™ density centrifugation (GE Healthcare Bio-Sciences AB; Uppsala, Sweden). For surface phenotype determination, monocytes were plated at 1×10^6 cells/ml in 60 mm culture plates (Corning, Spain), in RPMI 1640 medium without serum, and allowed to adhere for 2 h at 37° C. in 5% CO2. The non-adherent cells were removed by washing in PBS.
Monocyte-derived DCs were generated supplementing the monocyte cultures with complete RPMI 1640 medium plus GM-CSF (800 UI/ml) and IL-4 (500 UI/ml) (both from Gentaur, Kampenhout, Belgium) at day 0 and day 3 of culture. For DC maturation, at day 5 iDCs were further stimulated for 48 h with 5 μg/ml LPS (Escherichia coli 055.B5, Sigma L2880, Copenhagen, Denmark).
Staining using the fluorescent dye 7-amino-actinomycin D (7-AAD) (BD Pharmigen) and flow cytometry analysis was employed to assess the viability status of C4BP-treated and untreated DCs.
Cell surface phenotypes were analyzed by flow cytometry using the following mAbs: FITC-conjugated anti-CD83 (HB15a) and PE-conjugated anti-CD86 (HA5.2B7) (all from Beckman-Coulter). The respective isotype controls FITC-conjugated anti-IgG2b (H2) and PE-conjugated anti-IgG2b (H2), were from the same commercial sources. After washing with PBS, cells were subsequently stained with 3 μl mAb/10^5 cells in 100 μl of FACS buffer (PBS containing 1% BSA and 0.1% sodium azide) for 20 min at room temperature. To exclude dead cells and debris, DCs were gated according to forward scatter (FSC) and side scatter (SSC) parameters. Stained cells were analyzed using a FACSCalibur (Becton Dickinson, Franklin Lakes, NJ) equipped with CellQuestPro software (Becton Dickinson).
In Vitro Functional Assessment of C4BP(β−) Immunomodulatory Activity Over DCs
The inventors used for the in vitro study both C4BP(+) and C4BP(β−) isoforms. C4BP(3+) isoforms refer to the major C4BP α7β1 plus the minor C4BP α6β1 isoforms (both in complex with ProS) purified from pooled human plasma, as previously described (Dahlbäck B. 1983. Biochem J., 209:847-56).

[6] = tested on: Balb/c male mice, CAIA model; format: in vivo, mouse
From the text: Collagen-antibody induced arthritis (CAIA) is a simple mouse model of human rheumatoid arthritis (RA) induced by the systemic administration of a cocktail of monoclonal antibodies directed against conserved auto-antigenic collagen type II epitopes, followed by a single injection of lipopolysaccharide (LPS). CAIA is a useful model to study the effector inflammatory phase of arthritis without involving the priming phase of the immune response. The murine CAIA model shares several clinical, immunological and pathological features with RA. Therefore, this model is useful to study the pathogenic mechanisms involved in RA disease as well as for testing new therapies.
Balb/c male mice aged 7-8 weeks were supplied by Envigo. The animals were acclimated during 12 days. The animals were maintained in an environmentally controlled room with ventilation, temperature (22±2° C.), relative humidity (35-65%), and cycle light/dark (12 h/12 h). The animals were housed in groups of 3-5 animals/cage. The maintenance diet was supplied by Harlan Interfauna Ibérica, S. L. (“2014 Harlan Teklad Global Diets”) and they were feed diet and water ad libitum.
Plasmatic C4BP(β−) was supplied at a concentration of 6.2 mg/ml. C4BP(β−) solutions were prepared to the desired concentration 0.33 mg/ml (for 50 μg doses) by dilution with Dulbecco's phosphate-buffered saline (DPBS) of C4BP(β−) 6.2 mg/ml stock solution.
Two reference compounds were used: dexamethasone (Sigma, Ref. D1756) and Enbrel® (etanercept) (Pfizer, Ref. 655950).
Reference compound dexamethasone was dissolved in vehicle (0.1% Tween-80+99% carboxymethyl cellulose (CMC) (0.5% w/v) in water at a concentration of 0.1 mg/ml.
Enbrel® was prepared at 6 mg/ml in DPBS by dilution of 50 mg/mL stock solution.
Experimental Procedure Day 0: Arthritis Induction
On day 0, animals for experimental group C4BPd3 were randomly selected (n=8) and identified using tail code numbers and weighted.
Each mouse was sensitized by the administration of 2 mg anti-type II collagen antibodies cocktail (ArthritoMAB™ cocktail solution, 0.2 mL, i.v., day 0) in the caudal vein.
Day 3: LPS Synchronization
Animals were intraperitoneally administered with 0.1 mL of LPS solution (0.7 mg/ml, 70 μg/animal).
50 μg of C4BP(β−) were administered subcutaneously at day 3 to treatment group C4BPd3.
50 μg of C4BP(β−) were administered subcutaneously at day 5 to treatment group C4BPd3.
Day 5: Animal Distribution
On day 5 after sensitization, the rest of the animals developing clinical signs of arthritis (n=18) were evaluated and distributed in base of CAIA+incidence. Animals were homogeneously randomized (arthritis score) into the CAIA control group, dexamethasone (1 mg/kg at days 5-11, p.o.) and Enbrel®-treated groups (30 mg/kg at days 5-11, s.c.) (n=6). Animals were identified using tail code numbers and weighted.
Group 2 was not included in the distribution because of the previous test item administration.
The arthritis score was determined using the criteria of Table 9.
Treatment: • C4BPd3 group: 50 μg of C4BP(β−) were subcutaneously injected to animals on days 3 and 5. Volume: 0.150 mL. • Reference compound treatments and CAIA control groups (days 5-11): • Enbrel®: 30 mg/kg of Enbrel® was subcutaneously administered to Enbrel group from days 5 to 11. Volume: 5 mL/kg. • Dexamethasone: 1 mg/kg dexamethasone was orally administered to dexamethasone group from days 5 to 11. Volume: 10 mL/kg. • CAIA control group: 0.150 mL of DPBS was subcutaneously administered from days 5 to 11. Arthritis Monitoring:
Body weights were registered daily from days 0-12 in C4BPd3 and from days 5-12 in CAIA control, dexamethasone and Enbrel® groups. Arthritis scores were determined by the same observer in order to avoid observer bias.
The study was finished at day 12.
Animals were anesthetized with isoflurane. Ankles and wrists thickness were measured using a dial thickness gauge. Serum samples were collected and stored at −20° C. […]

For `O=P1(N(CCCl)CCCl)NCCCO1` (centres unmarked) [CYP, Cyclophosphamide, reference compound], the histological lesions [1] is listed as “arrested and reversed almost all histological lesions”, the “serum anti-DNA antibodies” value [1] is listed as “appropriately controlled” and the survival [2] is listed as “survived throughout the period of observation; also recorded: increased survival”. The “toxicity and behavioral changes” value [3] was “neither toxicity nor behavioral changes were observed” and the development of proteinuria [4] was “prevented the development of proteinuria”.

B1: C4BP(β−): plasma-purified C4BP minor isoform lacking beta chain; C4BPd3 is the CAIA group given 50 μg sc at days 3 and 5 (protein, UniProt P04003 49-597, looked up)
C4b-binding protein alpha …: NCGPPPTLSFAAPMDITLTETRFKTGTTLKYTCLPGYVRSHSTQTLTCNSDGEWVYNTFCIYKRCRHPGELRNGQVEIKTDLSFGSQIEFSCSEGFFLIGSTTSRCEVQDRGVGWSHPLPQCEIVKCKPPPDIRNGRHSGEENFYAYGFSVTYSCDPRFSLLGHASISCTVENETIGVWRPSPPTCEKITCRKPDVSHGEMVSGFGPIYNYKDTIVFKCQKGFVLRGSSVIHCDADSKWNPSPPACEPNSCINLPDIPHASWETYPRPTKEDVYVVGTVLRYRCHPGYKPTTDEPTTVICQKNLRWTPYQGCEALCCPEPKLNNGEITQHRKSRPANHCVYFYGDEISFSCHETSRFSAICQGDGTWSPRTPSCGDICNFPPKIAHGHYKQSSSYSFFKEEIIYECDKGYILVGQAKLSCSYSHWSAPAPQCKALCRKPELVNGRLSVDKDQYVEPENVTIQCDSGYGVVGPQSITCSGNRTWYPEVPKCEWETPEGCEQVLTGKRLMQCLPNPEDVKMALEVYKLSLEIEQLELQRDSARQSTLDKEL
modifications: alpha-chain-only isoform, plasma-purified
With B1 the “semi-mature, anti-inflammatory phenotype conferred to LPS-matured MoDCs (immunomodulatory activity)” value ([5]; MoDCs pre-incubated with 5 μg/ml protein, LPS challenge) was “able to confer an analogous semi-mature, anti-inflammatory phenotype”, the “CD83 and CD86 surface marker expression” value ([5]; human MoDCs, 5 μg/ml C4BP isoform, LPS 5 μg/ml) was “restrain similarly CD83 and CD86 surface marker expression” and the “toxicity and behavioral changes” value [3] was “neither toxicity nor behavioral changes were observed”. The “protection lasting until day after the arthritis induction” value ([6]; 50 μg sc at days 3 and 5) was ≥ 12 days, the “inhibition of arthritis score vs. CAIA controls AUC” value ([6]; C4BP(β−) 50 μg sc days 3 and 5, dexamethasone 1 mg/kg po days 5-11) was 47% and the ankle thickness ([6]; day 12, C4BP(β−) 50 μg sc d3 and d5, dexamethasone 1 mg/kg po d5-11, Enbrel 30 mg/kg sc d5-11) was 2.74±0.08 mm. For the same molecule, the “wrist thickness vs. CAIA control” value ([6]; day 12, regimens as Table 8) was “No changes”, the “body weight vs CAIA control group” value ([6]; mouse, in vivo) was “No remarkable differences” and the “arthritis scores / progression of arthritis” value ([6]; regimens as Table 8, vs CAIA control group) was “significantly ameliorated the progression of arthritis”.
